Data reported in article PMC5817723, “^99mTc-HYNIC-(tricine/EDDA)-FROP peptide for MCF-7 breast tumor targeting and imaging” (Journal of Biomedical Science, 2018).
Residues, ends and D or L forms follow the SMILES beside them. *: point of attachment. HYNIC = NNc1ccc(C(=O)*)cn1

Assay: In vitro stability in succinate buffer (peptide reaction mixture), %RCP by ITLC
Type: physicochemical
Settings: room temperature, TLC, n = 3
Procedure: The radiochemical purity was determined by instant thin layer chromatography (ITLC) in different mobile phases such as methyl ethyl ketone (MEK), acetonitrile/water (50/50) and citrate solvent (0.1 M, pH 5.2) using a Lablogic mini scan TLC scanner (Sheffield, UK) and Laura image analysis software. In MEK, free ^99mTcO4^− migrated with the solvent front, while radiolabeled peptide remained at the application point. In the acetonitrile/water system, the colloids remained at the application point, while radiolabeled peptide migrated in front of solvent. The amount of labeled co-ligand was determined by citrate solvent, that free ^99mTcO4 Na and labeled co-ligand migrate in front of solvent while both RHT and labeled peptide (^99mTc-FROP) remind at the origin. A NaI (Tl) gamma detector (Delshid, Tehran, Iran) was used to for measurement of radioactivity.
[…] For serum stability, ^99mTc-HYNIC-FROP (30 μL) was incubated with freshly human plasma serum (90 μL) in triplicate at 37 °C. At 1 h of incubation, the plasma proteins were precipitated with a mixture of acetonitrile/ethanol (1:1 v/v) and centrifugation. The supernatant layer was filtered through a 0.22 μm filter and then the fraction was analyzed by RP-HPLC. Partition coefficient of ^99mTc-HYNIC-FROP was determined via method that previously was described.

Which “%RCP in succinate buffer (peptide reaction mixture)” value (“%RCP in succinate buffer” for short) (2 h) does the source give for `CSCC[C@H](NC(=O)[C@H](CC(C)C)NC(=O)[C@H](CCC(=O)O)NC(=O)[C@H](Cc1ccc(O)cc1)NC(=O)[C@H](CC(=O)O)NC(=O)[C@@H](N)CCC(=O)O)C(=O)N[C@@H](CC(=O)O)C(=O)N[C@@H](CC(C)C)C(=O)N[C@@H](CC(C)C)C(=O)N[C@@H](C)C(=O)N[C@@H](Cc1ccc(O)cc1)C(=O)N[C@@H](CC(C)C)C(=O)N[C@@H](CCCCNC(=O)c1ccc(NN)nc1)C(=O)O` [^99mTc-HYNIC-FROP, metal not drawn] (H-EDYELMDLLAYLK(HYNIC)-OH) here?
Its value is 99.6 ± 0.2%.

What about the “%RCP in succinate buffer” value (4 h) of the same molecule?
Its value is 99.5 ± 0.4%.

What about the “%RCP in succinate buffer” value (6 h) of the same molecule?
The value was 99.1 ± 0.9%.

And the “%RCP in succinate buffer” value (24 h)?
Its value is 96.8 ± 2.4%.
